First the molecules themselves.
B1: hz28G3-1.1-DDDXd (with DAR of 7.4) (antibody, human IgG1, kappa, DAR 7.4, V domains shown)
VH: QVQLVQSGAEVKKPGASVKVSCKTSGYSFTDYLMLWVRQAPGQGLEWMGNINPYYGRTTYALKFKGRVTMTVDRSTSTVYMELSSLRSEDTAVYYCARDGYSLRNAMDYWGQGTLVTVSS
VL: DIVMTQSPDSLAVSLGERATINCKSSQSLFNSGNQKNYLAWYQQKPGQPPKLLIYGASTRESGVPDRFSGSGSGTDFTLTISSLQAEDVAVYYCQNAHSYPYTFGQGTKVEIKR
modifications: linker-payload MC-GGFG-DDDXd (compound H) conjugated to cysteines of the reduced inter-chain disulfide bonds; positions not given; linker-payload MC-GGFG-DDDXd (compound H) conjugated to cysteines of the reduced inter-chain disulfide bonds; positions not given; DAR 7.4 for the whole molecule
notes: also called anti-CLDN18.2 antibody-drug conjugate
B2: hz28G3-1.3-DDDXd (with DAR of 7.6) (antibody, human IgG1, kappa, DAR 7.6, V domains shown)
VH: B1 VH with P41H, G44S
VL: B1 VL
modifications: linker-payload MC-GGFG-DDDXd (compound H) conjugated to cysteines of the reduced inter-chain disulfide bonds; positions not given; linker-payload MC-GGFG-DDDXd (compound H) conjugated to cysteines of the reduced inter-chain disulfide bonds; positions not given; DAR 7.6 for the whole molecule
notes: as for B1
B3: humanized antibody hz28G3-1.1 (antibody, human IgG1, kappa, V domains shown)
VH: B1 VH
VL: B1 VL
notes: Naked humanized anti-CLDN18.2 antibody, human IgG1 / kappa, expressed in CHO cells
B4: humanized antibody hz28G3-1.3 (antibody, human IgG1, kappa, V domains shown)
VH: B1 VH with P41H, G44S
VL: B1 VL
notes: as for B3

Residue numbers refer to the chain shown, from its start.

By EC50 is commonly meant the concentration at which the effect is half-maximal. A higher EC50 goes with weaker potency.

The target in one experiment is human CLDN18.2 (human). The experiment in a line: cell-based or functional assay.
In the case of B1, the “CDC activity IC50, CLDN18.2-overexpressing NIH-3T3 cells with human complement” value was about 0.352 nM.

For B2, the “CDC activity IC50, CLDN18.2-overexpressing NIH-3T3 cells with human complement” value is about 0.352 nM.

For a further experiment, the target named is T1, human CLDN18.2 (human).
T1 construct: The construct in the CLDN18.2-overexpressing BxPC-3 and NCI-N87 lines is not described; KATOIII and NUGC-4 express CLDN18.2 naturally; All are written here as this one molecule; also called Claudin 18.2; tight junction protein 18.2
T1 sequence (chain, as listed by the source limits assumed): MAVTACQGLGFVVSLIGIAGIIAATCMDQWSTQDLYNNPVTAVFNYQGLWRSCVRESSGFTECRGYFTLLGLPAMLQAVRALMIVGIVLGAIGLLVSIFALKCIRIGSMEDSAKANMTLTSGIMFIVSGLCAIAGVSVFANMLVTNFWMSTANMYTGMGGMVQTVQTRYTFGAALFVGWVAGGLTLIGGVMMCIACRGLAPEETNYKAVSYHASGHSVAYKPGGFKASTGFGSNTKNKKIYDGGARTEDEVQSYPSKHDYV
The experiment in a line: flow cytometry, CLDN18.2-overexpressing NCI-N87 cells.
B1 showed an EC50 of 1.17 nM.

B3 had a 50% effective concentration (EC50) of 2.61 nM. This EC50 lies about 2.2-fold higher than the previous one.

B2 yielded an EC50 of 1.02 nM.

B4 showed an EC50 of 2.73 nM.

In a further experiment the target is T1, human CLDN18.2. The experiment in a line: flow cytometry, CLDN18.2-overexpressing BxPC-3 cells. In general terms: A flow cytometer gives signals particle by particle.
Molecule B1 gave a 50% effective concentration (EC50) of 1.13 nM.

For the molecule B3, a half-maximal response (EC50) required 2.63 nM.

Turning to B2, the EC50 amounted to 0.946 nM.

Molecule B4 gave an EC50 of 3.42 nM. Compared with the last molecule, the EC50 is about 3.6-fold higher.

For another experiment, the target named is T1, human CLDN18.2. The experiment in a line: flow cytometry, CLDN18.2-overexpressing NIH-3T3 cells.
On to B1, for which the response was half-maximal at 0.896 nM (EC50). In other words, the sub-nanomolar range.

B3 displayed an EC50 of 2.27 nM. This EC50 is about 2.5-fold higher than that of the molecule before.

In the case of B2, the 50% effective concentration (EC50) was found to be 0.593 nM.

For B4, the midpoint of the response, the EC50, lay at 1.76 nM.

Another experiment deals with T1, human CLDN18.2. The experiment is described as follows: cell-based or functional assay.
Take B1: the “Endocytosis EC50, CLDN18.2-overexpressing NCI-N87 cells” value is 4.41 nM and the “Endocytosis EC50, CLDN18.2-overexpressing NIH-3T3 cells” value worked out at 3.69 nM.

As for B3, the “Endocytosis EC50, CLDN18.2-overexpressing NCI-N87 cells” value is 7.84 nM and the “Endocytosis EC50, CLDN18.2-overexpressing NIH-3T3 cells” value amounted to 2.57 nM.

Turning to B2, the “Endocytosis EC50, CLDN18.2-overexpressing NCI-N87 cells” value is 3.24 nM and the “Endocytosis EC50, CLDN18.2-overexpressing NIH-3T3 cells” value stood at 1.85 nM.

In the case of B4, the “Endocytosis EC50, CLDN18.2-overexpressing NCI-N87 cells” value amounted to 6.68 nM and the “Endocytosis EC50, CLDN18.2-overexpressing NIH-3T3 cells” value worked out at 4.26 nM.

A further experiment addresses T1, human CLDN18.2. The experiment is described as follows: cell-based or functional assay. The source holds these as a separate data set.
On to B1, for which the “Killing activity IC50 (CellTiter-Glo), CLDN18.2-overexpressing BxPC-3 cells” value came out at 0.125 nM; the “Killing activity IC50 (CellTiter-Glo), CLDN18.2-overexpressing NCI-N87 cells” value came to 0.0381 nM; the “Killing activity IC50 (CellTiter-Glo), CLDN18.2-overexpressing NIH-3T3 cells” value stood at 0.44 nM.

Regarding B2, the “Killing activity IC50 (CellTiter-Glo), CLDN18.2-overexpressing BxPC-3 cells” value was determined as 0.0886 nM; the “Killing activity IC50 (CellTiter-Glo), CLDN18.2-overexpressing NCI-N87 cells” value came to 0.0337 nM; the “Killing activity IC50 (CellTiter-Glo), CLDN18.2-overexpressing NIH-3T3 cells” value came to 0.281 nM.

For the origin of these results see EP4628104A1 (Shanghai Chia Tai Tianqing Pharmaceutical Technology …, dated 2024).
